Assay results: publication doi:10.1101/2025.01.10.632391

Molecular target: angiopoietin-like 6 (ANGPTL6) (UniProt Q8NI99)
Test: SPR

UniProt Q8NI99, sequence (Q8NI99 21-470): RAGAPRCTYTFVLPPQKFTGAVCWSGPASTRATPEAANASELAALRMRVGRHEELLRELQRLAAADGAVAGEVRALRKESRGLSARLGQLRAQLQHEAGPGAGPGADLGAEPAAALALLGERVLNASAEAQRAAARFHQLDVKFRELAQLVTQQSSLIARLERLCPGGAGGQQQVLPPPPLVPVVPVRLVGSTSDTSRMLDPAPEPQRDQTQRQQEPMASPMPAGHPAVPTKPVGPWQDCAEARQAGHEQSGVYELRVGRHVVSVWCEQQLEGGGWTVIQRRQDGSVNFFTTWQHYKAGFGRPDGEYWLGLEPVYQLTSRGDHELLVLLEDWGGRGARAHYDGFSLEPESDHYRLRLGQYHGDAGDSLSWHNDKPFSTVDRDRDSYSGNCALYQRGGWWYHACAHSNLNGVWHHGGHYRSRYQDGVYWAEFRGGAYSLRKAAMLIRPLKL

αVβ5 integrin (from UniProt P06756 31-1048; P18084 24-719) (complex)
Kd: 0.013 µM | koff: 0.0012 s⁻¹
